Changes are numbered by the printed parent chain.
T1: FcgRIIa R (human, UniProt P12318)
T1 chain: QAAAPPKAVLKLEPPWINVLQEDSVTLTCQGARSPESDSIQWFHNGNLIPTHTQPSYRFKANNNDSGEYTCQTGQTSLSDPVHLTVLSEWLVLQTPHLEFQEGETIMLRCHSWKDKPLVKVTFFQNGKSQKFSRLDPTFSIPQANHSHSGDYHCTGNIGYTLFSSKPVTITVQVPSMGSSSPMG

T2: FcgRIIb (human, UniProt P31994)
T2 chain: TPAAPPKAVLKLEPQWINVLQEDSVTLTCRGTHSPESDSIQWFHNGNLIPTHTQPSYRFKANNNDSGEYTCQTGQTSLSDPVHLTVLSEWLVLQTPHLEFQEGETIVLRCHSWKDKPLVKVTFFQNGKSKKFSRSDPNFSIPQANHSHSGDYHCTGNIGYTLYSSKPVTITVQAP

T3: FcgRIa (human, UniProt P12314)
T3 chain: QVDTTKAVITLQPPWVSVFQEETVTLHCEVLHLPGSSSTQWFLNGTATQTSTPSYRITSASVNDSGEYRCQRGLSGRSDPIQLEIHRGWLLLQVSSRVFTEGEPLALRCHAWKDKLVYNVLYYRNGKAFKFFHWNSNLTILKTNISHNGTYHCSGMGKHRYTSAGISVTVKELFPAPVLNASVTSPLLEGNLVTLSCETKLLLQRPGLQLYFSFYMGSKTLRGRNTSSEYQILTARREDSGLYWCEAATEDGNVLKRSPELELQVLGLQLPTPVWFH

T4: FcgRIIa H (human, UniProt P12318)
T4 chain: T1 chain with R134H

B1: H240-Kn234/H240-Hl068/L73-k0 (antibody)
chain 1: QDQLVQSGAEVKKPGASVKVSCKASGFNIKDTYIQWVRQAPGQGLEWMGRIDPLRKQTKYREKFEGRVTITADTSTNTAYMELSSLRSEDTAVYYCVRSGREFDYWGQGTLVTVSSASTKGPSVFPLAPSSKSTSGGTAALGCLVKDYFPEPVTVSWNSGALTSGVHTFPAVLQSSGLYSLSSVVTVPSSSLGTQTYICNVNHKPSNTKVDKKVEPKSCDKTHTCPPCPAPEDYWGPIVFLFPPKPKDTLMISRTPEVTCVVVDVSDEDPEVKFNWYVDGVEVHNAKTKPREEQYNATYRVVSVLTVLHQDWLNGKEYKCKVSNKDLPAPIEKTISKAKGQPREPQVCTLPPSRDELTKNQVSLWCLVKGFYPSDIAVEWESNGQPENNYKTTPPVLDSDGSFFLYSKLTVDKSRWQQGNVFSCSVMHEALHNHYTQKSLSLSP
chain 2: QDQLVQSGAEVKKPGASVKVSCKASGFNIKDTYIQWVRQAPGQGLEWMGRIDPLRKQTKYREKFEGRVTITADTSTNTAYMELSSLRSEDTAVYYCVRSGREFDYWGQGTLVTVSSASTKGPSVFPLAPSSKSTSGGTAALGCLVKDYFPEPVTVSWNSGALTSGVHTFPAVLQSSGLYSLSSVVTVPSSSLGTQTYICNVNHKPSNTKVDKKVEPKSCDKTHTCPPCPAPELLGGPSVFLFPPKPKDTLMISRTPEVTCVVVDVSHEEPEVKFNWYVDGVEVHNAKTKPREEQYNSTYRVVSVLTVLHQDWLNGKEYKCKVSNDALPKPIEETISKAKGQPREPQVYTLPPSRCELTKNQVSLSCAVKGFYPSDIAVEWESNGQPENNYKTTPPVLDSDGSFFLVSKLTVDKSRWQQGNVFSCSVMHEALHNHYTQKSLSLSP
chain 3: DIQMTQSPSSLSASVGDRVTITCRASQDIHKYIAWYQQKPGQAPRLLIQYTSTLQPGVPSRFSGSGSGTDYTFTISSLQPEDIATYYCLQYEQLRTFGGGTKVEIKRTVAAPSVFIFPPSDEQLKSGTASVVCLLNNFYPREAKVQWKVDNALQSGNSQESVTEQDSKDSTYSLSSTLTLSKADYEKHKVYACEVTHQGLSSPVTKSFNRGEC
B2: H240-Kn227/H240-Hl214/L73-k0 (antibody)
chain 1: B1 chain 1 with D233E, Y234Q, D269E, D326A
chain 2: B1 chain 2 with K329F
chain 3: B1 chain 3
B3: H240-Kn198/H240-Hl068/L73-k0 (antibody)
chain 1: B1 chain 1 with D233L, Y234Q, I238M, D269E, D326A
chain 2: B1 chain 2
chain 3: B1 chain 3
B4: H240-Kn202/H240-Hl214/L73-k0 (antibody)
chain 1: B1 chain 1 with D233E, Y234Q, I238M, D269E, D326A
chain 2: B1 chain 2 with K329F
chain 3: B1 chain 3
B5: H240-Kn189/H240-Hl068/L73-k0 (antibody)
chain 1: B1 chain 1 with D233S, I238M
chain 2: B1 chain 2
chain 3: B1 chain 3
B6: H240-Kn204/H240-Hl211/L73-k0 (antibody)
chain 1: B1 chain 1 with D233Y, Y234L, W235G, I238S, D267H, K289Y, Y295W, A297S, D326A
chain 2: B1 chain 2 with S238D, E269D, D325K, K329M, E333V
chain 3: B1 chain 3
B7: H240-Kn205/H240-Hl212/L73-k0 (antibody)
chain 1: B1 chain 1 with D233Y, Y234L, W235G, I238S, D267H, Y295W, A297C, D326A
chain 2: B1 chain 2 with S238D, E269D, D325K, K329A, E333V
chain 3: B1 chain 3
B8: H240-Kn198/H240-Hl076/L73-k0 (antibody)
chain 1: B1 chain 1 with D233L, Y234Q, I238M, D269E, D326A
chain 2: B1 chain 2 with K329M
chain 3: B1 chain 3
B9: H240-Kn221/H240-Hl068/L73-k0 (antibody)
chain 1: B1 chain 1 with D233T, I238M
chain 2: B1 chain 2
chain 3: B1 chain 3
B10: H240-Kn224/H240-Hl068/L73-k0 (antibody)
chain 1: B1 chain 1 with D233H, I238M
chain 2: B1 chain 2
chain 3: B1 chain 3
B11: H240-Kn211/H240-Hl076/L73-k0 (antibody)
chain 1: B1 chain 1 with D233M, Y234Q, I238M, D269E, D326A
chain 2: B1 chain 2 with K329M
chain 3: B1 chain 3
B12: H240-Kn215/H240-Hl076/L73-k0 (antibody)
chain 1: B1 chain 1 with D233H, Y234Q, I238M, D269E, D326A
chain 2: B1 chain 2 with K329M
chain 3: B1 chain 3
B13: H240-Kn208/H240-Hl076/L73-k0 (antibody)
chain 1: B1 chain 1 with Y234Q, I238M, D269E, D326A
chain 2: B1 chain 2 with K329M
chain 3: B1 chain 3
B14: H240-Kn222/H240-Hl068/L73-k0 (antibody)
chain 1: B1 chain 1 with D233A, I238M
chain 2: B1 chain 2
chain 3: B1 chain 3
B15: H240-Kn213/H240-Hl076/L73-k0 (antibody)
chain 1: B1 chain 1 with D233A, Y234Q, I238M, D269E, D326A
chain 2: B1 chain 2 with K329M
chain 3: B1 chain 3
B16: H240-Kn207/H240-Hl076/L73-k0 (antibody)
chain 1: B1 chain 1 with D233V, Y234Q, I238M, D269E, D326A
chain 2: B1 chain 2 with K329M
chain 3: B1 chain 3
B17: H240-Kn218/H240-Hl068/L73-k0 (antibody)
chain 1: B1 chain 1 with D233Q, I238M
chain 2: B1 chain 2
chain 3: B1 chain 3

Biological target: T1, FcgRIIa R
Test: SPR

Binder | Kd [nM]
B1 | 21
B2 | 370
B3 | 240
B4 | 830

Biological target: T2, FcgRIIb
Test: SPR

Binder | Kd [nM]
B5 | 150
B6 | 1300
B7 | 1600
B8 | 6300
B9 | 220
B10 | 360
B11 | 4200
B12 | 6100
B13 | 3200
B14 | 190
B15 | 6100
B16 | 5200
B17 | 220

Biological target: T3, FcgRIa
Test: SPR

Binder | Kd [nM]
B1 | 0.19
B2 | 0.13
B3 | 0.24
B4 | 0.09

Biological target: T4, FcgRIIa H
Test: SPR

Binder | Kd [nM]
B5 | 48
B6 | 760
B7 | 370
B8 | 140
B9 | 44
B10 | 57
B11 | 200
B12 | 250
B13 | 310
B14 | 49
B15 | 210
B16 | 170
B17 | 33

The binders below were run against T5, FcgRIIIa V (human, UniProt P08637) (assay: SPR).
T5 sequence (P08637 17-208 F176V): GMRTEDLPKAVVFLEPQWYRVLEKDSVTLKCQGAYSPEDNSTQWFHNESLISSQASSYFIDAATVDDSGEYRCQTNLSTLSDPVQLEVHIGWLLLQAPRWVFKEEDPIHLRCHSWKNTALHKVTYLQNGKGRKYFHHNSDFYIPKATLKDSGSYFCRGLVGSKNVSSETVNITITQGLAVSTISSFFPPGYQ

Binder | Kd [nM]
B1 | 0.68
B2 | 0.8
B3 | 0.85
B4 | 0.95

Biological target: T5, FcgRIIIa V
Test: SPR
Remark: another data set of the same source

Binder | Kd [nM]
B5 | 0.52
B6 | 7.4
B7 | 4.2
B8 | 0.54
B9 | 0.47
B10 | 0.53
B11 | 0.52
B12 | 0.68
B13 | 0.4
B14 | 0.54
B15 | 0.73
B16 | 0.49
B17 | 0.5

What follows are binders tested against T6, FcgRIIIa F (human, UniProt P08637) (assay: SPR).
T6 sequence (P08637 17-208): as the sequence (P08637 17-208 F176V) above, with V160F counted along it

Binder | Kd [nM]
B5 | 3.2
B6 | 14
B7 | 12
B8 | 1.5
B9 | 2.7
B10 | 4
B11 | 1.9
B12 | 2.6
B13 | 1.8
B14 | 3.3
B15 | 2.6
B16 | 1.9
B17 | 3.5

Biological target: T3, FcgRIa
Test: SPR
Remark: another data set of the same source

Binder | Kd [nM]
B5 | 0.16
B6 | 0.038
B7 | 0.054
B8 | 0.083
B9 | 0.18
B10 | 0.14
B11 | 0.084
B12 | 0.089
B13 | 0.1
B14 | 0.14
B15 | 0.082
B16 | 0.085
B17 | 0.14

Biological target: T4, FcgRIIa H
Test: SPR
Remark: another data set of the same source

Binder | Kd [nM]
B1 | 65
B2 | 290
B3 | 49
B4 | 440

Biological target: T2, FcgRIIb
Test: SPR
Remark: another data set of the same source

Binder | Kd [nM]
B1 | 140
B2 | 2800
B3 | 1600
B4 | 6100

Biological target: T6, FcgRIIIa F
Test: SPR
Remark: another data set of the same source

Binder | Kd [nM]
B1 | 2.3
B2 | 1.8
B3 | 3.7
B4 | 2.6

Biological target: T1, FcgRIIa R
Test: SPR
Remark: another data set of the same source

Binder | Kd [nM]
B5 | 23
B6 | 640
B7 | 610
B8 | 630
B9 | 29
B10 | 54
B11 | 550
B12 | 1000
B13 | 500
B14 | 28
B15 | 820
B16 | 680
B17 | 37

Source: US10766960 (dated 2020)
